Results reported in article doi:10.1101/2023.08.01.551478, “A feedback control mechanism governs the synthesis of lipid-linked precursors of the bacterial cell wall” (bioRxiv, 2023).

Target: the molecule itself
Experiment: cryo-EM structure; YES complex of EcMraY(T23P), protein E and SlyD, obtained with the methodologies of ref. 31; focused refinement of MraY alone; processed with cryosparc v3.2.0

B1: E. coli MraY(T23P) (enzyme)
chain: MLVWLAEHLVKYYSGFNVFSYLPFRAIVSLLTALFISLWMGPRMIAHLQKLSFGQVVRNDGPESHFSKRGTPTMGGIMILTAIVISVLLWAYPSNPYVWCVLVVLVGYGVIGFVDDYRKVVRKDTKGLIARWKYFWMSVIALGVAFALYLAGKDTPATQLVVPFFKDVMPQLGLFYILLAYFVIVGTGNAVNLTDGLDGLAIMPTVFVAGGFALVAWATGNMNFASYLHIPYLRHAGELVIVCTAIVGAGLGFLWFNTYPAQVFMGDVGSLALGGALGIIAVLLRQEFLLVIMGGVFVVETLSVILQVGSFKLRGQRIFRMAPIHHHYELKGWPEPRVIVRFWIISLMLVLIGLATLKVR
notes: MraY (phospho-MurNAc-pentapeptide transferase) of Escherichia coli with the T23P substitution, as it stood in the YES complex for cryo-EM; also called EcMraY(T23P)
stoichiometry N: 2
